{"source": "paper PMC5983706", "about": "“A Rationally Designed Hsp70 Variant Rescues the Aggregation-Associated Toxicity of Human IAPP in Cultured Pancreatic Islet β-Cells” (International Journal of Molecular Sciences, 2018)", "target": "T1, Hsp70 wild type (human Hsp70 1A) (human, UniProt P0DMV8 1-641)", "T1 construct": "human Hsp70 1A, GenBank entry NP005336; also called Hsp70 WT; heat shock protein 70 kDa", "T1 sequence (P0DMV8 whole entry)": "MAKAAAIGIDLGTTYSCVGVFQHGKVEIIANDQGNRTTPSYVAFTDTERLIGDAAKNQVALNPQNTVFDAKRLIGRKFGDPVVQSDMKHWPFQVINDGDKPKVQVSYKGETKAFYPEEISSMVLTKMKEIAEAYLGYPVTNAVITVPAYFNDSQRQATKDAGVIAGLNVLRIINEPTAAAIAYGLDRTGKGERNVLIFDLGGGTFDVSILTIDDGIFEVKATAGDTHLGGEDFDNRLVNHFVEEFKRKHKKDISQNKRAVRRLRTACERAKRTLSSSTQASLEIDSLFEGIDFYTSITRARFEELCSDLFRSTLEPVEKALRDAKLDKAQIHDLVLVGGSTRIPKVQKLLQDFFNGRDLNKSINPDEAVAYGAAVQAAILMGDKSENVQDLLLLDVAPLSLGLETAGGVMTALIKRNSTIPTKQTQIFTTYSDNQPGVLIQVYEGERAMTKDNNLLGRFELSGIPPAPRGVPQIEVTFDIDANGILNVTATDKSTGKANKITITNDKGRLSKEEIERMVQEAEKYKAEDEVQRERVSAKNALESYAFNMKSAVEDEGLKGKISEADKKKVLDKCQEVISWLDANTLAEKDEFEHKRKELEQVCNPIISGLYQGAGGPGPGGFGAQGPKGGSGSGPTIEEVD", "assay": "other fluorescence titration; 0.15 µM FAM-hIAPP with 0 to 36 µM chaperone in 50 mM Tris pH 7.4, 150 mM KCl, 5 mM MgCl2, 1 h at room temperature; FAM fluorescence at 520 nm; one-site binding model", "conditions": "both partners purified", "note": "Ends that are not written are not given here. FAM = carboxyfluorescein", "data": [{"binder": "{FAM}-KCNTATCATQRLANFLVHSSNNFGAILSSTNVGSNTY (peptide, UniProt P10997 34-70, looked up, ends and bridges not checked, human islet amyloid polypeptide (hIAPP, amylin), the mature hormone cut from its precursor; also called amylin; source: bought: Phoenix Pharmaceuticals)", "note": "[FAM-hIAPP (human islet amyloid polypeptide N-terminally labelled with carboxyfluorescein)]", "values": [{"measurement": "Kd", "value": "2200 ± 300", "unit": "nM"}]}]}
